Holding throughout (test): cell-based or functional assay
For one experiment, the target named is glucagon receptor (UniProt P47871 26-477, limits assumed).
The target in experiment [1] is T1, GLP-1 receptor (UniProt P43220 24-463, limits assumed).
Experiment [2] deals with T1, GLP-1 receptor. The source holds these as a separate data set.

Numbered stars: 1 amine (or outer) side, 2 acyl side, 3 side chain; on linkers, the order of the positions; unused ones are H or OH. Bridge positions count the residues as written; N and C are the ends. Square brackets hold non-standard residues; d marks the D form. Side chains are listed from the residue outwards. Ends that are not written are not given here. * marks the point of attachment. γGlu = O=C(O)[C@H](CCC(=O)[*:2])N[*:1]; Palmitoyl = CCCCCCCCCCCCCCCC(=O)*; DMIA = not defined here; Aib = CC(C)(N)C(=O)O; βAla = NCCC(=O)O

Chain of glucagon receptor (P47871 26-477 limits assumed): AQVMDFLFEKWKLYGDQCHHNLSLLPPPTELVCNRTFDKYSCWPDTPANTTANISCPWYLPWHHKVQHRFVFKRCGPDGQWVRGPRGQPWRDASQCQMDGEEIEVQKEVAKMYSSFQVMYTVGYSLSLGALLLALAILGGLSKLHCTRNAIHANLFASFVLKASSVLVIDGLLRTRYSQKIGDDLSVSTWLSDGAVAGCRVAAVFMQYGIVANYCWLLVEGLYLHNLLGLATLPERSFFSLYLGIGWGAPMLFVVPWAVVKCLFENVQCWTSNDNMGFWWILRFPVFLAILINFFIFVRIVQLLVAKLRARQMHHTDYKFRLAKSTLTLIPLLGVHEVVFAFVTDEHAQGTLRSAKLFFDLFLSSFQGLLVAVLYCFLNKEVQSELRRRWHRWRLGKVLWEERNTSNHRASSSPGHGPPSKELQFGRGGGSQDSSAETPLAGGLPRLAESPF

As to XSQGTFTSDYSKYLDERRAKDFVQWLMNK (DMIA at position 1; E16/K20 lactam; C16 fatty acyl on Lys29 via γ-Glu spacer) [DMIA1, E16/K20 lactam, Lys29 γE-C16 (SEQ ID NO: 653)], the “in vitro activity EC50” value in the experiment with glucagon receptor came out at 0.107 nM; in the experiment with GLP-1 receptor [1] it was 0.075 nM.

B1: AIB2, AIB16, A18, D28, Lys10 γE-γE-C16 (SEQ ID NO: 655) (peptide)
peptide: H[Aib]QGTFTSDK([γGlu-γGlu-Palmitoyl])SKYLD[Aib]RAAQDFVQWLMDT-NH2
modifications: N-terminus assumed
SMILES: CCCCCCCCCCCCCCCC(=O)N[C@@H](CCC(=O)N[C@@H](CCC(=O)NCCCC[C@H](NC(=O)[C@H](CC(=O)O)NC(=O)[C@H](CO)NC(=O)[C@@H](NC(=O)[C@H](Cc1ccccc1)NC(=O)[C@@H](NC(=O)CNC(=O)[C@H](CCC(N)=O)NC(=O)C(C)(C)NC(=O)[C@@H](N)Cc1c[nH]cn1)[C@@H](C)O)[C@@H](C)O)C(=O)N[C@@H](CO)C(=O)N[C@@H](CCCCN)C(=O)N[C@@H](Cc1ccc(O)cc1)C(=O)N[C@@H](CC(C)C)C(=O)N[C@@H](CC(=O)O)C(=O)NC(C)(C)C(=O)N[C@@H](CCCNC(=N)N)C(=O)N[C@@H](C)C(=O)N[C@@H](C)C(=O)N[C@@H](CCC(N)=O)C(=O)N[C@@H](CC(=O)O)C(=O)N[C@@H](Cc1ccccc1)C(=O)N[C@H](C(=O)N[C@@H](CCC(N)=O)C(=O)N[C@@H](Cc1c[nH]c2ccccc12)C(=O)N[C@@H](CC(C)C)C(=O)N[C@@H](CCSC)C(=O)N[C@@H](CC(=O)O)C(=O)N[C@H](C(N)=O)[C@@H](C)O)C(C)C)C(=O)O)C(=O)O
Take B1: the figures for the “in vitro activity EC50” value with glucagon receptor and with GLP-1 receptor [1] were 0.003 nM and 0.004 nM, respectively.

B2: DMIA1, E16/K20 lactam, Lys29 γE-γE-C16 (SEQ ID NO: 654) (peptide)
peptide: XSQGTFTSDYSKYLDERRAKDFVQWLMNK
modifications: DMIA at position 1; E16/K20 lactam; C16 fatty acyl on Lys29 via γ-Glu-γ-Glu spacer
Take B2: the “in vitro activity EC50” value was 0.025 nM with glucagon receptor and 0.07 nM with GLP-1 receptor [1].

In the case of H[Aib]QGTFTSDK([γGlu-γGlu-Palmitoyl])SKYLD[Aib]RRAQDFVQWLMNT-NH2 [Peptide 83 (Table 22, SEQ ID NO: 565)], in the experiment with GLP-1 receptor [2], the “cAMP EC50” value stood at 0.043 nM.

Regarding H[Aib]QGTFTSDK([βAla-βAla-Palmitoyl])SKYLD[Aib]RRAQDFVQWLMNT-NH2 [Peptide 84 (Table 22, SEQ ID NO: 566)], the “cAMP EC50” value with GLP-1 receptor [2] is 0.004 nM.

Consider H[Aib]QGTFTSDK([Ala-Ala-Palmitoyl])SKYLD[Aib]RRAQDFVQWLMNT-NH2 [Peptide 82 (Table 22, SEQ ID NO: 564)], for which the “cAMP EC50” value with GLP-1 receptor [2] was determined as 0.108 nM.

Turning to H[Aib]QGTFTSDK([Leu-Leu-Palmitoyl])SKYLD[Aib]RRAQDFVQWLMNT-NH2 [Peptide 86 (Table 22, SEQ ID NO: 568)], the “cAMP EC50” value with GLP-1 receptor [2] turned out to be 0.006 nM.

With H[Aib]QGTFTSDK([γGlu-Palmitoyl])SKYLD[Aib]RAAQDFVQWLMDT-NH2 [AIB2, AIB16, A18, D28, Lys10 γE-C16 (SEQ ID NO: 656)], the figures for the “in vitro activity EC50” value with glucagon receptor and with GLP-1 receptor [1] were 0.006 nM and 0.004 nM, respectively.

Consider [DMIA]SQGTFTSDK([γGlu-Palmitoyl])SKYLDERRAKDFVQWLMNT (lactam 16-20; reading uncertain) [DMIA1, E16/K20 lactam, Lys10 γE-C16 (SEQ ID NO: 651)], for which the figures for the “in vitro activity EC50” value in the experiment with glucagon receptor and in the experiment with GLP-1 receptor [1] were 0.019 nM and 0.006 nM, respectively.

The values above are taken from US20130090286A1 (published 2013).
